Measured values taken from patent publication US9243280.
“Also recorded” adds a separate entry of the source.

Tests used:
[1] = tested on: GFP fusion with aminoglycoside acetyltransferase (AAC)
[2] = biological target: Ribosomal protein S1 bearing the C-terminal control peptide tag (UniProt P0AG67)
[3] = biological target: Ribosomal protein S1 bearing the C-terminal degradation peptide tag (UniProt P0AG67)

ClpXP protease (complex of a hexamer of the ClpX unfoldase and the 14-mer ClpP protease)
in vitro degradation at 30 degrees C with ClpX, ClpP, ATP and an ATP regeneration system (SDS-PAGE, Coomassie staining) [1]: By 80 minutes, all of the substrate (10-fold over ClpX6) was degraded
colony formation on plates with arabinose (ClpP and ClpX induced) [2]: Colony formation by the rpsA-cont strain was unaffected by ClpP-X expression
level of S1-cont after induction of ClpP-X (anti-FLAG immunoblot of total protein) [2]: The induction of ClpP-X in the rpsA-cont strain did not alter the level of S1-cont throughout the time course
amount of S1-deg present 25, 35, and 45 minutes post induction, quantified against a dilution series on an immunoblot [3]: less than 0.5% of the level present prior to induction
level of S1-deg after induction of ClpP-X (anti-FLAG immunoblot of total protein) [3]: the level of S1-deg was reduced to approximately 50% by 15 minutes; also recorded: to trace levels at 25 minutes and beyond
number of colony-forming units on plates under inducing against non-inducing conditions [3]: expression of ClpP-X reduced the number of colony-forming units by more than a million-fold when the strain relied on S1-deg for growth
